Test [1] addresses heat-aggregated IgG (HAGG). Kind of test: cell-based or functional assay.
Test [2] has as its target human IgG monomer (Sandoglobulin, Novartis) (human). Kind of test: BIAcore equilibrium binding over immobilised IgG (Sandoglobulin). (In general: SPR reads the build-up and loss of mass on a sensor chip optically.)
The target in test [3] is dimer-IgG (Wright et al., 1980). Description: flow cytometry: inhibition of dimer-IgG binding to human neutrophils. (In general: In flow cytometry, cells or beads pass a laser one at a time.)
In test [4] the target is heat-aggregated IgG (HAGG). Description: flow cytometry: inhibition of HAGG binding to human FcγRIIb on IIA1.6 cells.
The target of test [5] is heat-aggregated IgG (HAGG). Description: BIAcore equilibrium binding over immobilised HAGG; two-binding site model, KD1.
For test [6], the target named is heat-aggregated IgG (HAGG). Kind of test: BIAcore equilibrium binding over immobilised HAGG; two-binding site model, KD2.
Test [7] addresses heat-aggregated IgG (HAGG). Description: BIAcore equilibrium binding over immobilised HAGG; KD1 against the monomer's KD.
Test [8] addresses human IgG monomer (Sandoglobulin, Novartis) (human). Kind of test: BIAcore equilibrium binding over immobilised human IgG monomer; two-binding site model, KD1.
Test [9] shares this target. Description: BIAcore equilibrium binding over immobilised human IgG monomer; two-binding site model, KD2.
The target of test [10] is dimer-IgG (Wright et al., 1980). Kind of test: flow cytometry: inhibition of dimer-IgG binding to neutrophils from two different individuals.
The target of test [11] is human IgG monomer (Sandoglobulin, Novartis) (human). Kind of test: BIAcore equilibrium binding over immobilised IgG (Sandoglobulin), rounded value of the discussion.
The target in test [12] is dimer-IgG (Wright et al., 1980). Kind of test: flow cytometry, inhibition of dimer-IgG binding to human neutrophils (volunteer V1, Fcγ receptors m8) by purified rsFcγRIIa dimer.
Test [13] deals with heat-aggregated IgG (HAGG). Description: BIAcore equilibrium binding, receptor injected over immobilised HAGG; single-binding site.
In test [14] the target is human IgG monomer (Sandoglobulin, Novartis) (human). Kind of test: BIAcore equilibrium binding, receptor injected over immobilised human IgG monomer (Sandoglobulin); single-binding site.
For test [15], the target named is ovalbumin-anti-ovalbumin immune complexes (OVA ICs). Description: cell-based or functional assay.

Regarding “recombinant soluble FcγRIIa dimer (rsFcγRIIa dimer), head to tail homodimer construct of FIG. 1 (from UniProt P12318 34-215) (receptor)”, the IC50, HAGG-induced CD62P upregulation on human platelets in [1] was 3.9 µg/mL. The fold potency against rsFcγRIIa monomer, HAGG-induced platelet activation in [1] worked out at 5 fold. Further, the fold greater avidity than the monomeric receptor in [2] worked out at 300 fold. The IC50 in test [3] was 1.1 µg/mL; in [4] it was 0.0039 µg/mL; in test [10], 0.9 to 1.1 µg/mL; in test [12], 0.9 µg/mL. In addition, the fold more active than rsFcγRIIa monomer in test [3] was 10 fold. Besides, the fold more potent than the monomer protein in test [4] is more than 500 fold. The equilibrium dissociation constant (Kd) is 2.73 nM in [5]; 99 nM in test [6]; 3.2 nM in [8]; 100 nM in test [9]; 3 nM in test [11]. Moreover, the fold lesser KD than monomeric rsFcγRIIa in test [7] turned out to be 300 fold.
In the case of “recombinant soluble FcγRIIa monomer (rsFcγRIIa monomer), expressed from pBAR426 in HEK 293E cells (from UniProt P12318 34-217) (receptor)”, the IC50 in [3] was 10.5 µg/mL. Further, the values for the Kd in [13], in test [11] and in test [14] were 1050 nM, 1000 nM and 1700 nM, respectively.
Take “rsFcγRIIa monomer (R&D Systems, Cat #1330-CD/CF) (from UniProt P12318 36-218) (receptor)”: the IC50, HAGG-induced CD62P upregulation on human platelets in test [1] was 20.9 µg/mL. In test [15], this substance displayed an IC50, TNF-α release from MC/9 cells induced by OVA ICs of 17.7 µg/mL. The same substance gave an IC50 in test [4] of 2.08 µg/mL.

A word on the IC50: it is the concentration that inhibits the measured activity by half. A low value points to greater potency. A word on the Kd: it is the free concentration of one partner at which half of the binding sites on the other are occupied at equilibrium, for simple one-to-one binding. High values mean weaker binding, low ones tighter binding.

(Values after patent US20130089893A1.)
